Residue numbers refer to the chain shown, from its start. Several values for one entry are separate records, joined by “and”; a condition that tells them apart may be missing. Equal values may be shown once.
T1: Recombinant Human IL-17 (human, UniProt Q16552 20-155, limits assumed)
T1 construct: Bought reagent
T1 sequence (looked up): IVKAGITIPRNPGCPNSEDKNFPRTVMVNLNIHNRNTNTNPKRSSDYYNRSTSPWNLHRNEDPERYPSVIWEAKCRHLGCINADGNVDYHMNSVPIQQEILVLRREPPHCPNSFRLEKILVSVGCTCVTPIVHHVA

T2: Recombinant Human IL-17 (human, UniProt Q16552 20-155, limits assumed)
T2 construct: bought reagent
T2 sequence (looked up): T1 sequence (looked up)

B1: AB274 (antibody, human IgG1, kappa, V domains shown)
VH: EVQLVQSGAEVKKPGSSVKVSCKASGGSFGGYGIGWVRQAPGQGLEWMGGITPFFGFADYAQKFQGRVTITADESTTTAYMELSGLTSDDTAVYYCARDPNEFWNGYYSTHDFDSWGQGTTVTVSS
VL: EIVLTQSPDFQSVTPKEKVTITCRASQDIGSELHWYQQKPDQPPKLLIKYASHSTSGVPSRFSGSGSGTDFTLTINGLEAEDAGTYYCHQTDSLPYTFGPGTKVDIKR
notes: Parent antibody
B2: AB272 (antibody, human IgG1, kappa, V domains shown)
VH: EVQLVESGGGLVQPGGSLRLSCAVSGFTLSDYGVSWIRQAPGKGLEWLGLIWGGGDTYYNSPLKSRLTISKDNSKSTVYLQMNSLRAEDTAVYYCAKQRTLWGYDLYGMDYWGQGTLVTVSS
VL: ETTVTQSPSSLSASVGDRVTITCITSTDIDVDMNWYQQKPGKPPKLLISQGNTLRPGVPSRFSSSGSGTDFTFTISSLQPEDFATYYCLQSDNLPLTFGQGTKLEIKR
notes: constants by vectors: V1 wt hIgG1, V2 kappa
B3: AB270 (antibody, human IgG1, kappa, V domains shown)
VH: EVQLQESGPGLVKPSETLSLTCTVSGFSLSDYGVSWIRQPPGKGLEWLGLIWGGGDTYYNSPLKSRLTISKDNSKSQVSLKLSSVTAADTAVYYCAKQRTLWGYDLYGMDYWGQGTLVTVSS
VL: B2 VL with E1D, T3Q
notes: as for B2
B4: AB271 (antibody, human IgG1, kappa, V domains shown)
VH: B3 VH
VL: DTVVTQSPAFLSVTPGEKVTITCITSTDIDVDMNWYQQKPDQPPKLLISQGNTLRPGVPSRFSSSGSGTDFTFTISSLEAEDAATYYCLQSDNLPLTFGQGTKLEIKR
notes: as for B2
B5: AB270 (antibody, human IgG1, kappa, V domains shown)
VH: B3 VH
VL: B2 VL with E1D, T3Q
notes: Parent antibody
B6: AB271 (antibody, human IgG1, kappa, V domains shown)
VH: B3 VH
VL: B4 VL
notes: Parent antibody
B7: AB272 (antibody, human IgG1, kappa, V domains shown)
VH: B2 VH
VL: B2 VL
notes: Parent antibody
B8: AB274 (antibody, human IgG1, kappa, V domains shown)
VH: B1 VH
VL: B1 VL
notes: as for B2
B9: AB273 (antibody, human IgG1, kappa, V domains shown)
VH: EVQLVQSGAEVKKPGSSVKVSCKASGYTFTDYEIHWVRQAPGQGLEWMGVNDPESGGTFYNQKFDGRVTLTADESTSTAYMELSSLRSEDTAVYYCTRYSKWDSFDGMDYWGQGTTVTVSS
VL: DIQMTQSPSSLSASVGDRVTITCRASSGIISYIDWFQQKPGKAPKRLIYATFDLASGVPSRFSGSGSGTDYTLTISSLQPEDFATYYCRQVGSYPETFGQGTKLEIKR
notes: as for B2
B10: DVD1640 (bispecific antibody, human IgG1, kappa)
heavy: not shown
light: EIVLTQSPDFQSVTPKEKVTITCRASQNIGSELHWYQQKPDQSPKLLIKYASHSISGVPSRFSGSGSGTDFTLTINGLEAEDAATYYCHQSDTLPHTFGQGTKVDIKRTVAAPDIQMTQSPSSLSASVGDRVTITCRASGNIHNYLTWYQQTPGKAPKLLIYNAKTLADGVPSRFSGSGSGTDYTFTISSLQPEDIATYYCQHFWSIPYTFGQGTKLQITRTVAAPSVFIFPPSDEQLKSGTASVVCLLNNFYPREAKVQWKVDNALQSGNSQESVTEQDSKDSTYSLSSTLTLSKADYEKHKVYACEVTHQGLSSPVTKSFNRGEC
notes: V1/V2 vectors: wild type hIgG1, kappa
B11: DVD1642 (bispecific antibody, human IgG1, kappa)
heavy: not shown
light: B10 light
notes: as for B10
B12: DVD1646 (bispecific antibody, human IgG1, kappa)
heavy: not shown
light: EIVLTQSPDFQSVTPKEKVTITCRASQNIGSELHWYQQKPDQSPKLLIKYASHSISGVPSRFSGSGSGTDFTLTINGLEAEDAATYYCHQSDTLPHTFGQGTKVDIKRTVAAPDTVVTQSPAFLSVTPGEKVTITCITSTDIDVDMNWYQQKPDQPPKLLISQGNTLRPGVPSRFSSSGSGTDFTFTISSLEAEDAATYYCLQSDNLPLTFGQGTKLEIKRTVAAPSVFIFPPSDEQLKSGTASVVCLLNNFYPREAKVQWKVDNALQSGNSQESVTEQDSKDSTYSLSSTLTLSKADYEKHKVYACEVTHQGLSSPVTKSFNRGEC
notes: DVD-Ig: outer AB275, inner AB271; V1/V2 vectors: wild type hIgG1, kappa
B13: DVD1638 (bispecific antibody, human IgG1, kappa)
heavy: not shown
light: EIVLTQSPDFQSVTPKEKVTITCRASQDIGSELHWYQQKPDQPPKLLIKYASHSTSGVPSRFSGSGSGTDFTLTINGLEAEDAGTYYCHQTDSLPYTFGPGTKVDIKRTVAAPETTVTQSPSSLSASVGDRVTITCITSTDIDVDMNWYQQKPGKPPKLLISQGNTLRPGVPSRFSSSGSGTDFTFTISSLQPEDFATYYCLQSDNLPLTFGQGTKLEIKRTVAAPSVFIFPPSDEQLKSGTASVVCLLNNFYPREAKVQWKVDNALQSGNSQESVTEQDSKDSTYSLSSTLTLSKADYEKHKVYACEVTHQGLSSPVTKSFNRGEC
notes: DVD-Ig: outer AB274, inner AB272; V1/V2 vectors: wild type hIgG1, kappa
B14: DVD1648 (bispecific antibody, human IgG1, kappa)
heavy: not shown
light: B13 light with D28N, P43S, T55I, G84A, T91S, S93T, Y96H, P100Q
notes: DVD-Ig: outer AB275, inner AB272; V1/V2 vectors: wild type hIgG1, kappa

Molecular target: T1, Recombinant Human IL-17
Test: Biacore SPR
Procedure: (§1) The BIACORE assay (Biacore, Inc, Piscataway, N.J.) determines the affinity of antibodies or DVD-Ig with kinetic measurements of on-rate and off-rate constants. Binding of antibodies or DVD-Ig to a target antigen (for example, a purified recombinant target antigen) was determined by surface plasmon resonance-based measurements with a Biacore® 1000 or 3000 instrument (Biacore® AB, Uppsala, Sweden) using running HBS-EP (10 mM HEPES [pH 7.4], 150 mM NaCl, 3 mM EDTA, and 0.005% surfactant P20) at 25° C. All chemicals were obtained from Biacore® AB (Uppsala, Sweden) or otherwise from a different source as described in the text. For example, approximately 5000 RU of goat anti-mouse IgG, (Fcγ), fragment specific polyclonal antibody (Pierce Biotechnology Inc, Rockford, Ill.) diluted in 10 mM sodium acetate (pH 4.5) was directly immobilized across a CM5 research grade biosensor chip using a standard amine coupling kit according to manufacturer's instructions and procedures at 25 μg/ml. Unreacted moieties on the biosensor surface were blocked with ethanolamine. Modified carboxymethyl dextran surface in flowcell 2 and 4 was used as a reaction surface. Unmodified carboxymethyl dextran without goat anti-mouse IgG in flow cell 1 and 3 was used as the reference surface. For kinetic analysis, rate equations derived from the 1:1 Langmuir binding model were fitted simultaneously to association and dissociation phases of all eight injections (using global fit analysis) with the use of Biaevaluation 4.0.1 software. Purified antibodies or DVD-Ig were diluted in HEPES-buffered saline for capture across goat anti-mouse IgG specific reaction surfaces. Antibodies or DVD-Ig to be captured as a ligand (25 μg/ml) were injected over reaction matrices at a flow rate of 5 μl/min. The association and dissociation rate constants, kₒₙ (M⁻¹s⁻¹) and koff (s⁻¹) were determined under a continuous flow rate of 25 μl/min. Rate constants were derived by making kinetic binding measurements at different antigen concentrations ranging from 10−200 nM. The equilibrium dissociation constant (M) of the reaction between antibodies or DVD-Igs and the target antigen was then calculated from the kinetic rate constants by the following formula: KD=koff/kₒₙ. Binding was recorded as a function of time and kinetic rate constants are calculated.

Row | Kd | koff | kon | Binder
1 | 0.0068 nM | 1.8e-05 s⁻¹ | 2.7e+06 M⁻¹ s⁻¹ | B1

Molecular target: T3, Recombinant Human IL-1β (human, UniProt P01584 117-269)
T3 construct: bought reagent; also called IL-1B
Test: Biacore SPR
Procedure: as §1

Row | Kd | koff | kon | Binder
2 | 0.14 nM and 0.12 nM | 0.00053 s⁻¹ and 0.00066 s⁻¹ and 0.00056 s⁻¹ | 3.9e+06 M⁻¹ s⁻¹ and 5.3e+06 M⁻¹ s⁻¹ and 4e+06 M⁻¹ s⁻¹ | B2
3 | 0.089 nM and 0.082 nM and 0.08 nM | 0.00058 s⁻¹ and 0.00055 s⁻¹ and 0.00053 s⁻¹ | 6.5e+06 M⁻¹ s⁻¹ and 6.7e+06 M⁻¹ s⁻¹ and 6.6e+06 M⁻¹ s⁻¹ | B3
4 | 0.11 nM and 0.096 nM | 0.00055 s⁻¹ and 0.00057 s⁻¹ and 0.00051 s⁻¹ | 5.1e+06 M⁻¹ s⁻¹ and 6e+06 M⁻¹ s⁻¹ and 4.6e+06 M⁻¹ s⁻¹ | B4

Molecular target: T4, Recombinant Human IL-1β (human, UniProt P01584 117-269)
T4 construct: Bought reagent; also called IL-1B
Test: Biacore SPR
Procedure: as §1

Row | Kd | koff | kon | Binder
5 | 0.08 nM | 0.00053 s⁻¹ | 6.6e+06 M⁻¹ s⁻¹ | B5
6 | 0.11 nM | 0.00051 s⁻¹ | 4.6e+06 M⁻¹ s⁻¹ | B6
7 | 0.14 nM | 0.00056 s⁻¹ | 4e+06 M⁻¹ s⁻¹ | B7

Molecular target: T2, Recombinant Human IL-17
Test: Biacore SPR
Procedure: as §1

Row | koff | Binder
8 | 2e-05 s⁻¹ and 2.1e-05 s⁻¹ and 1.8e-05 s⁻¹ | B8
9 | ≤ 1e-05 s⁻¹ and 1.2e-05 s⁻¹ and 1.3e-05 s⁻¹ | B9

Molecular target: T4, Recombinant Human IL-1β
Test: Biacore SPR; C-terminal VD
In short: (§2)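 Antibodies or DVD-Ig were captured at 25 μg/ml on an amine-coupled goat anti-mouse IgG (Fcγ) CM5 surface, with a blank dextran reference. Antigen was injected at 10−200 nM in HBS-EP pH 7.4 at 25° C. A global 1:1 Langmuir fit gave kon and koff, and KD = koff/kon.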

Row | Kd | koff | kon | Binder
10 | 0.09 nM | 1.2e-05 s⁻¹ | 130000 M⁻¹ s⁻¹ | B10
11 | < 0.001 nM | < 1e-06 s⁻¹ | 960000 M⁻¹ s⁻¹ | B11
12 | 0.62 nM | 0.00063 s⁻¹ | 1e+06 M⁻¹ s⁻¹ | B12
13 | 0.63 nM | 0.00085 s⁻¹ | 1.3e+06 M⁻¹ s⁻¹ | B13
14 | 0.56 nM | 0.00075 s⁻¹ | 1.3e+06 M⁻¹ s⁻¹ | B14

Molecular target: T1, Recombinant Human IL-17
Test: Biacore SPR; N-terminal VD
In short: as §2

Row | Kd | koff | kon | Binder
15 | 0.017 nM | 6.5e-05 s⁻¹ | 3.8e+06 M⁻¹ s⁻¹ | B10
16 | 0.011 nM | 4.1e-05 s⁻¹ | 3.9e+06 M⁻¹ s⁻¹ | B11
17 | 0.012 nM | 4.7e-05 s⁻¹ | 3.9e+06 M⁻¹ s⁻¹ | B12
18 | 0.0068 nM | 2.7e-05 s⁻¹ | 3.9e+06 M⁻¹ s⁻¹ | B13
19 | 0.02 nM | 6.2e-05 s⁻¹ | 3.1e+06 M⁻¹ s⁻¹ | B14

Molecular target: T1, Recombinant Human IL-17
Test: cell-based or functional assay

Row | N-terminal VD IL-17 Neutralization Assay EC50 | IL-17 Neutralization Assay EC50 | Binder
20 | 0.0061 nM | – | B10
21 | 0.0043 nM | – | B11
22 | 0.0082 nM | – | B12
23 | 0.0069 nM | – | B13
24 | 0.0089 nM | – | B14
25 | – | 0.002 nM | B1

Molecular target: T4, Recombinant Human IL-1β
Test: cell-based or functional assay

Row | IL-1β Neutralization Assay EC50 | C-Terminal VD IL-1β Neutralization Assay EC50 | Binder
26 | 0.245 nM | – | B5
27 | 0.308 nM | – | B6
28 | 0.298 nM | – | B7
29 | – | 2.85 nM | B10
30 | – | 0.628 nM | B11
31 | – | 20.6 nM | B12
32 | – | > 20 nM | B13
33 | – | 16.2 nM | B14

From patent US20120034160A1 (AbbVie / Abbott, published 2012)
